Assay results as given in the DeepSol protein solubility set.

Test: soluble on expression in E. coli; label from the status in PepcDB or PDB records
For “MDIEIENHPLEPFLPANARLLMLGSFPPQKKRWSMDFYYPNLNNDMWRIVGLLFFNNKDYFLNETRKAFCRERIISFLNDKGIALFDTASAIRRLQDNASDKFLEVVQPTDISRLLGQLPECKAIVTTGQKATDTLRAQFEVEEPKVGDFSEFVFDGRPVRLYRMPSSSRAYPLALDKKAAAYRTMYQDLQMLNIELEHHHHHH”, the “soluble on expression in E. coli” value was “soluble”. With “MVIRSVSRFLQGNNWPDVSKIYKTIVEKWRNENPDQNAHFSLEVTGPTGTSGVVTVKPSEEIGKSEKVSEEKSSEKPSIEVATTSLKRYPPAHMRVRDKLVGILSASGLRIGLPSSVSLVFSRSDLGSATSSTERICASSQEVASTMSLPDPSQSGITDSFPRVFKEFDFLEAEHDSVSETADSCFGWLSTMRPTREKDDERASIRSSLRNLSSGGQGGEEEEEEPEEDEESESHEEEENSESDDLPRKVEDDDLEEEDEDEEERTPCPSECCDDDREDVEMMLRQDIEAYASRGGSVAASSMADDDLRSRLTNNIVSISSQMTEHRHLEEENTSVDGSSVCAYSNASMLASEYYPNRTRSLRIQCSHHLDSRIEREFSMSVNEINESNDCNLLAYGTLLSTQLYKSSCGKVCALLRDASHILTNRAMSRSFASAQETLCNVVDIPFLFVTEQFLRNSPICQRLKFTLNELKEHWETFDERRDQCQKNTTNFGRKYKLFEILDFRKKNLKGINSLRSAYKLSALGGSTSSFSLTSELDLGKLLNKLVFQVKLMIDALKDMSDAVKNSTSSQTYSLSPAILEHHRELLMCASDDAASSVNSSLSRLNIDDSISRSQHSCDSLVLLLANKRYTQALQAVRQLRRTYGEEYGCCETVDVDVLLLLFCRSHSLKAWALVGASSEELTRQSELLREANAELASCLRRNAQSLQNMERMTPSMGSASMTESFAQLPSSSDHYD” the “soluble on expression in E. coli” value was “not soluble”. For “MSLAPRPRILICEDDPDIARLLNLMLEKGGFDSDMVHSAAQALEQVARRPYAAMTVDLNLPDQDGVSLIRALRRDSRTRDLAIVVVSANAREGELEFNSQPLAVSTWLEKPIDENLLILSLHRAIDNMAEGKPRILHVEDDLDIQRIAAAIAQNFATFEFACTLQEARDQLASHHYDLVLLDLTLKDGSGWELLSTIEALDPAPPVVVFSASKLNMMESQRVEAVLVKADTSNEELIRVLQRVLDDSLWGTVDSPLSEGHHHHHH”, the “soluble on expression in E. coli” value was “soluble”. With “MGSDKIHHHHHHMVKIKEGFKGERLVSLPEELLASYRREPLINNLYVRKIGFFPRVKYHFLQKEHGCDYAMLIYCTEGKGWYRILGKQYTVEKYQYIIIPPGIPYSFGADEGDPWTIYWLHFQGKLCDQFLPSHPVPVTISPNEYSRLQDRLRLFEEIYSSFSMGYIKEYMIYSSMCLYNFLASFIYLEQFRHIMIPSQKEYPFTARVIHYMRENIQQNLTLKELASYFKYSPSHFSALFFGETGVSPMNYFIRLKIQKACEYIELTNMKLNEIATHLGFEDAAYFSRTFTKVMGCSPSVYRKKEMEI” the “soluble on expression in E. coli” value was “not soluble”. With “MGMLVEGVWKDVWYDTKETKGHFKRSASQFRNWVTVDGAVGPSGEGGFEAEKDRYHLYVSFACPWAHRTLIFRKLKKLEDLISVSVVDPLMLENGWEFKPEGERTPGATQDHLFGSSTLWQVYTKADPTYSGRVTVPVLWDKKRGTIVSNESAEIIRMFNVAFNDLTGSDADYYPKALRAEIDALNDVIYDTVNNGVYKAGFATTQDAYQQNAVKVFETLDMLEDRLKDRRFLFGSEQTEADWRLFTTLVRFDPVYVGHFKCNIRRIHDYPHLTGYLRDLYQTPGVPDTVDMRHIKEHYYRSHRTINPTGIVPIGPELDLTMAHGREALS” the “soluble on expression in E. coli” value was “soluble”. In the case of “MRGSPHHHHHHGSAKNVVLDHDGNLDDFVAMVLLASNTEKVRLIGALCTDADCFVENGFNVTGKIMCLMHNNMNLPLFPIGKSAATAVNPFPKEWRCLAKNMDDMPILNIPENVELWDKIKAENEKYEGQQLLADLVMNSEEKVTICVTGPLSNVAWCIDKYGEKFTSKVEECVIMGGAVDVRGNVFLPSTDGTAEWNIYWDPASAKTVFGCPGLRRIMFSLDSTNTVPVRSPYVQRFGEQTNFLLSILVGTMWAMCTHCELLRDGDGYYAADALTAAYVVDQKVANVDPVPIDVVVDKQPNEGATVRTDAENYPLTFVARNPEAEFFLDMLLRSARAC”, the “soluble on expression in E. coli” value was “soluble”. With “MGSDKIHHHHHHVAPPTKGGLAEAENKMENKMTEQQGYWIGEAGKPWGEAEKAKWRAAQQKKRSYEQEVLSKFSQVSESFEAQQYGELNYAEGQYPLYGFKSRDWDQEKPTILVTGGVHGYETSGVQGALRFLIAKAAEYSQDFNILVAPCVSPWGYETINRWNPEAIDPNRSFYADSPAQESRALMQWVASFNLPLMAHIDLHETTDTDNSEFRPALAARDAKVQTNWNIPDGFYLVGDSENPNDEMQAAIIAAVGKVTHIAPADEQGRLIGEPITQFGVINYATKALGLCSGFSDARYNTTTEVYPDSPLVDDENCIQAQVMAVSSALDYIRSQG” the “soluble on expression in E. coli” value was “not soluble”. For “MPETEEISKGLEDVNIKWTRLTTIDGNKGILRYGGYSVEDIIASGAQDEEIQYLFLYGNLPTEQELRKYKETVQKGYKIPDFVINAIRQLPRESDAVAMQMAAVAAMAASETKFKWNKDTDRDVAAEMIGRMSAITVNVYRHIMNMPAELPKPSDSYAESFLNAAFGRKATKEEIDAMNTALILYTDHEVPASTTAGLVAVSTLSDMYSGITAALAALKGPLHGGAAEAAIAQFDEIKDPAMVEKWFNDNIINGKKRLMGFGHRVYKTYDPRAKIFKGIAEKLSSKKPEVHKVYEIATKLEDFGIKAFGSKGIYPNTDYFSGIVYMSIGFPLRNNIYTALFALSRVTGWQAHFIEYVEEQQRLIRPRAVYVGPAERKYVPIAERK”, the “soluble on expression in E. coli” value was “soluble”. For “ENILAGRAKAEKMRLSAERNRNQMEIYRSLQQGDECRKRQIHDYKNQLNCIRGLVDDNRTKEALRYIGQLTGSLNESIHQINTGHPVVNVLLNQKYQSAREQQISMTMTMNNLSELSLSEEDIVTLLANLLDNAIEACLKLHGDRRIQLKMVLEEEELFLSIRNPVEWEVKISGKTAAAAKEKSGEHGLGLGNVDAVIRKNRGRSTLQCQEGWFCFTAVILQPQR”, the “soluble on expression in E. coli” value was “not soluble”. With “MILVFLGPPGAGKGTQAKRLAKEKGFVHISTGDILREAVQKGTPLGKKAKEYMERGELVPDDLIIALIEEVFPKHGNVIFDGFPRTVKQAEALDEMLEKKGLKVDHVLLFEVPDEVVIERLSGRRINPETGEVYHVKYNPPPPGVKVIQREDDKPEVIKKRLEVYREQTAPLIEYYKKKGILRIIDASKPVEEVYRQVLEVIGDGN” the “soluble on expression in E. coli” value was “soluble”. In the case of “MSASFSAPRLRPRQLSAGDLVEESLLDPANDYLRIVRARQPGMDLRQWIAAAGAGLRDSLLRHGGILFRGFAVDGAEGFSQAVQSFSPNMLDYLERAAARQEVAHRVFTSTEFSPDGWIPPHHEMSYSHNWPSYIHFYCQTPPATQGRTPLADERRVSARIPEAIRQRFLRHGVCYVRNYGPEIDLTWQEGFQTDSRAEVEAYCRQTGTQWTWLDDQRLNTRQVRQAMVRHPLSGETLWFNHAHMFHVSNMPPALARALLDEVGEQGLPRNAYYGDGSPIEAEVLDTIRAAYREETRAFAWERGDVLMLDNFISVHGREPYTGERKVLVAMTDLHVHQP”, the “soluble on expression in E. coli” value was “not soluble”. In the case of “MGSDKIHHHHHHMFLLPSTITRNVIFISHATPEDNDFTIWLASRLQAEGFEVWIDKQALVGGEKFWQEIDQVIRHKAVKFLLVYSENICYQKQRGILKNGVAKEISMAEGIATTNGLKDFMILLNVDGSEYNLFIGADTLNQVPFYENWAGGYSQLRKKFKKEGLEPTGSPVGDFSKWYEDEYVIHHGIENLHEIYYDCWWPIPELPESFFVYIFPNNVVASQVHQRSKYPTGKASNILASFYDTSEFEVEIDGQLERIPFTAKHEIKVSDVIARTVRLGFPGTRDVENYFRSLLQRTFHLIMKERHLHWYEMANMKQAYFFSAKSHPKIKFEYPHRATKAGKSKVIFGKHLSSFWHYALSAKPIITPQLAFGLKSHIVFTTDGVKLWDDKAKMHTARRRKGRLMFNEEWRDLLFAFLHALCQGGTTVNIMLNPTFELALKPWTNTYHSDFGYIEPKGQDRHDILAAEYEYQDREDIDPDEVANV”, the “soluble on expression in E. coli” value was “not soluble”. With “MEKKFIAIYDLESDKIEIIDDKFRFKCIEDCGKCCIYNEIPLREEDIQKILSLGYEEEYFVDYTKMFYRGPKFLGYGMKKRPFDDACVFLDPETKKCRIYEHRPVACRIYPFVLVKHEKKLEIYVKEDPRCPGINSPDGEGIVEIIKKYFIPIIEELKGEINGNRRSRQEDFISFNRRLETVVAAALEHHHHHH” the “soluble on expression in E. coli” value was “not soluble”. In the case of “MAHHHHHHMKPSSISGEAPPLAVVGGNCSVFGFDRFGAERYWTVTGDQVTAMALMPWTSVSDSGSAPLSLLVASDDFEVRVYDGEEAIATVHEVDRVQKLVPLWQPSRNLDTETAAADSAGRYAYLLENGTVGMYERGERVWRVRGKSVPVSAAFCDVDGDGVAELVIGWSNGRVEVRTDRGGGLEKGGSVLFRDTYSSAVAAVLSEDYRQDGVPLPVICTVDGTVRGLTLLETRKDEAAEVRQLQVLEALVQEKQQLAAQLTSLEEQLARRAAGAQDTTMPESGVEVRCCCSANLATKHVEVHVEVTGPAAKRGDIVVHSCLLQCEIWATAAEQDTIAFANAEPSTTLVCSFAHADDLPLNVSASVAVGPAFGDSYRIHEVTVRVPRFVMYQLPYTIPPEQQRQRQGKTVTYQQPDGCVLLQWRELLRLDVIERWLRHSFCVPEDVALLDANAPTDPVLHLELIHVRDGSSFGIEVRNAAASGAAFNTITLWSDHLAPCGAVIDAFVEDLKGGWADGRADPVAVRCEMPLELERLRAIFARVDEFNEVRMKLTTDMADAATVVKTLLGRAEDARLLGDMASMKKSYAVLYDVDQELLCENAKRINNYEELKLALKEVNTCIQQAGMVRIGPARAQLIASCRNALKENQVNSLLEIIRTGSE”, the “soluble on expression in E. coli” value was “not soluble”. In the case of “MSRRRIRKFERPEEALLHLLDAAGIYRVGSRVWLHKPRVRELGFQYLAVETLVREYALAAEREYRGSVVYSKVYGGREYKILLGRGEEVAEASLADPSTVQRLLFSWRHLEELLPSPPLPAFVVDLSLKFMHTEEELSKLRLQIAVALSEVRKYLWDPHLVLTNMDPQTSGWISEVLGDNKVTISQSKPSEILWSMDADRVVILRPDAPQPLSGSEVLAADAFLIGGIVDRIPRPGVSRILDNLVPWGVPRRIELRGSVAGVPERINRIVEILLKARYKYPGNLEKAIITSMTKKDVLTRVYSEIIKRGRRVGSELVVEWSLYEDLSSWLPLTPEDFMLAAKRARARIEGAPRRDNALEHHHHHH”, the “soluble on expression in E. coli” value was “not soluble”. In the case of “MIAWYGMALDQAVVNRPVKAKLYSKIVDSVECTACSRYCRLKPGKTGFCGVRKNIDGDLYLLVYGLPAAINVDPIEKKPVLHMYPGARIFSLSTVGCSFACQYCQNYDISQRRTITGYHYDPEEIVEEALSMGCQGIAYTYNEPSIFMEYAHDIGVIARRHGLINIFVTNGFETPEAIDYARDFLDAATVDFKGNASDEFYRKYISVPSARPIFETLANLKSAGIHVEVTDLVVPEVGDRLEDARTMLERIMDILGEYVPISFLRFHPDYRMMDLPDTPVETLRKHHDLAVSMGFKYVYIGNVPGYGENTYCPNCGNLLIERFVFSSKVIGLDRNGRCKKCGYDPQIPLMKEKRADYIS”, the “soluble on expression in E. coli” value was “not soluble”.
